# Experiment: yeast display, Sf9 membrane polyspecificity reagent, FACS + sequencing; frameworks hold sequencing errors
# Summary of the method: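 A synthetic nanobody library was expressed on Saccharomyces cerevisiae BJ5465 by galactose induction for 36–48 hours. The library was stained for 1 hour at 4 °C with 10% biotinylated, detergent-solubilized Sf9 membrane reagent and enriched with streptavidin microbeads before FACS. Low and high (top ~1%) gates were set on anti-HA fluorescence for expression and streptavidin fluorescence for reagent binding, and each polyreactivity label reflects the gate of origin.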
row,Sequence,polyreactivity (PSR sort gate)
1,QVQLGESGGGLVQAGGSLRLICAASGFIVTTYVMGWYRQAPGKERELVAVISRSGGRTYYADSVKGRFTISRDNAKNTVYLQMNSLKPEDTAVYYCNVDIPVLSHIEYYYWGQGTQVTVSS,low polyreactivity
2,QVQLVESGGGLVQAGGSLRLSCAPSGFTFDFYAMGWYRQEPGKATELFAAINSGGSTNYADSVKGRFTISRDNAKNTVYLQMNSLKPEDTAVYYCNADWFTPAQPWYRYFIRYDYWGQGSQVTVSS,low polyreactivity
3,QVQLVESGGGVVQAGGSLRLSCAASGSTFGWYALGWYRQAPGKERELVAAITSGGSTKYADSVKGRFTISRDNAKNTVVLQMNSLKTEDTAVYYCDTVRGYYSPVLVIGYYWGQGTQVTVSS,high polyreactivity
4,QVQLVESGGGLVQAGGSLRLSCAASGSTFDSNAMGWYRQAPGKERELVAAIDYSSDSTYYADSVKGRFTISRDNAKNTVYLQMNSLKPEDTAVYYCAADIPPWGGDYWGQGTQVTVSS,low polyreactivity
5,QVQLVESGGGLVPARGSLRLSCAASGIILRGYAMGWYRQSPGKERELVAAITYRGSSTYYADSVKGSFTISRDNAKNTVYLQMNSLKPEDTAVYYCGADRWLYAVITAGGGYWGQGTQVTVSS,high polyreactivity
6,QVQLVESGGGLVQAGGSLRLICAASGSIFGRYAMGWYRQAPGKETELVAAINDDSGRTYYADSVKGRFTISRDNAKNTVYLQMNSLKPEDTAVYYCAADGYVLWYSFDYWGQGTLVTVSS,high polyreactivity
7,QVQLVESGGGLVQAGGSLRLSCAASGRTFPDNAMGWYRQEPGKERELVAVINWGGTSTYYADSVKGRFTISRDNAKNTFYLQMNSLKPEDTAVYYCAARARYPRVGYNYWGQGTQVTVSS,high polyreactivity
8,QVQLVESGGGLVQAGGSLRLSCAASGSTFGSNAMGGYRKAPGKERELVAAISTSGGSTYYADSVKGRFTISRDNAKNTVYLQMNSLKPEDTAVYYCNVDPAYSITYKGDYWGQGTQVSVSS,low polyreactivity
9,QVQLVESGGGLVQAGGSLRLTCAASGRTYFYNAMGWYIKAPGKERELVAAISTNGGSTYYADSVNGRFTISRDNAKNTVYLQMNSLKPEDTAVYYCNTYAKPHRSGGGLGGHYYWGQGTQVTVSS,low polyreactivity
10,QVQRVESGGGLVQAGGSLRLSCAASGFIFRRYAMGWYRQAPGKERELVASISSGGNTNYADSVKGRFTISRDNAKNTVYLQMNSLKPEDTAVYYCNDEYRWIAYGYWGQGTQVTVSS,high polyreactivity
11,QVQLVESGGGLVQAGGSLSLSCAASGSTFVWYAMGWYRQAPGTERELVATITYGGGSTNYADSVKGRFTISRDNAKNTVYLQMNSLKPEDTAVYYCNADTYFESGYWGQGTLVTVSS,low polyreactivity
12,QVQIVESGGGLVQAGGSLRLSCAASGRIFVGYAMGWYRQAPGKERELFAAISRDGDNTFYADSVKGRFTISRDNAKNTVYLQMNSLKPEDTAVYYCAVDFCVWYGSAYAYDYYWGQGTQVTVSS,low polyreactivity
13,QVQLVDSGGGLVQSGGILRLSCAASGRTFRYYAMGSYRQAPGKERELVAAISSGGSTNYADSVKGRFTISRDNAKNTVYLQMNSLKPEDTAVYYCAALWSGNKFKYWGQGSQVTVSS,low polyreactivity
14,QVQLVESGGGLVQAGGSLRLSCAASGSIFYQYAMGWYRQAPGKEREMLAAIRYSGSSTYYADSVKGRFTISRDNAKNTVYLQMNSLKPEDTEVYYCGKTLRRRRGDRRYRVIEMDHWGQGTQVTVSS,low polyreactivity
15,QVQLVESGGGLVQAGGSLRLSCAASGSTFGLYAMGWYRQAPRKERELVAVIRWGSGRTYYADSVKGRFTISRDNAKNTVYLQMNSLKPEDTAVYYCAKDRSYGSSSKRFGYWGQGTQVTVSS,high polyreactivity
16,QDQHVESGGGLVQAGGSLRLSCAASGRTFAGYAMGWYRQAPGKERELVATISGRGGSTSYADSVKGRFTISRDNAKNTVYLQMNSLIPEDTAVYYCAKASWYKYKYDYWGQGTQVTVSS,high polyreactivity
17,QVQLVESGGGLVQAGGSLRLSCAASGSTFGYNGMGWFRQAPGKERELVAAISGGARTYADSVKGRFTISRDNAKNTVYLQMNSLKPEDTAVYYCAAGVFHIFSRGNYDPSEYEYWGQGTQVTVSS,low polyreactivity
18,QVQLVESGGGLVQAGGRLRLSCAPSGRTFKYYAMGGYREAPGKERELVASISSGGNTNYADSVKGRFTISRDNATNSVYFQMNSLKPEDTAVYYCAASTWQNRRSYYWGQGTQVTVSS,high polyreactivity
19,QVQLVESGGGLVQAGGSLRLSCAASGFTLYPYAMGWYRPAPGKERELVAAISGSGGSTYYADSVKGRFTISRDNAKNTVYLQMNSLKPEDTAVYYCAARGPQQWWWDDDYWGQGTQVTVSS,high polyreactivity
20,QDQLVESGGGLVQAGGSLRLSCAASGSTFSYNMGWYRQAPGKERELVAAISGSGGSTYADSVKGRFTISRDNAKNTVYLQMNSLKPEDTAVYYCATVRYWVHEYGYWGQGTQVTVSS,high polyreactivity

row,Sequence,polyreactivity (PSR sort gate)
1,QVQLVESAGGLVQAGGSLSLSCAASGRILDRNGMGWYRQAPGKERELVATITGIADSTYYADSVKGRFTISRDNAKNTVYLQMNSLKPEDTAVYYCAADKYVAEYDYWGQGTQVTVSS,low polyreactivity
2,QVQLVESGGGLVQAGGSLRLSCAASGRILYRYDMGWYRQAPGKERELVAAISRRGGSTTYADSVKGRFTISRDNAKNTVYLQMNSLKPEDTAVYYCATDYKYAAPTVIESDYWGQGTEVTVSS,high polyreactivity
3,QVQLVESGGGLVQAGGSLRLSCAASGRIFSYNAMGWYRPAPGKERELVASISWSGGRTYYADSVKGRFTISRDNAKNTVYLQMNSLKPEDTAVYYCAVRYRGYGYDWGQGTQVTVSS,high polyreactivity
4,QVQLVESGGGLVQAGGSLRLSCAHSGSIFGQNAMGWYRHAPGKVRELVAAIRVSGGSTYYADSVKGRFTISRDNAKNTVYLQMNSLKPEDTAGYYCNARYRGYDGPITHGVTSYYWGQGTQVTVSS,low polyreactivity
5,QVQLVESGGGLVQAGGSLRLSCAASGITFWSNAMGWYRQAPGKERELVAAITSSGGSTYYADSVKGRFTISRDNAKNNVYLQMNSLKPEDTAVYYCAAPISRSAGWDSYDYWGQGTQVTVSS,low polyreactivity
6,QVQLVESGGGLVQAGGSLRLICAASGNTFYGYAMGWSRPAPGKERELVASITLSGDSTYYADSVKGRFTISRDNAKNTVYLQMNSLKPEDTAVYYCAGVYTYPLGYYHYTYDYWGQGTQVTVSS,low polyreactivity
7,QVQLVESGGGLVQAGGSLRLSFAASGRTFYGYAMGWYRQAPGKERELVASIRQSAGRTYYADSVKGRFTISRDISKNTVYLVMNSLKPEDSAVYYCAASIFLRSFYQQGNYWGQGTHVTVSS,high polyreactivity
8,QVQLVESGGGLVQAGGSLRLSCAASGNNFRYNAMVWYRQAPGKERELVAAISSVGTTNYADSVKGRFTISRDNAKNTVYLQMNSLKPEDTAVYYCAAVDYQGGYWYDYWGQGTQVTVSS,low polyreactivity
9,QVQLVESGGGLVQAGGSLRLSCAASGFTFQDYAMGWYRQAPGKERELVASISNGGSTYYADSVKGRFTISRDNAKNTVYLQMNSLKPEDTAVYYCAKPYDPGPYHSSYRATDDYWGQGTQVTVSS,low polyreactivity
10,QVQLVESGGGLVQAGGSLRLSCAASGRTFAYYAMGWYRQAPGKERELVAAISGNGGRTYYADSVKGRFTISRDNAKNTVYLQMNSLKPEDTAVYYCNAAVGYYSYSYYTKVGVDYWGQGSQVTVSS,high polyreactivity
11,QVQLVESGGGLVQAGVSLRLSCAASGSTLISNTMGWNRQAPWKERELVAAITRTGGRTYYADSVKGRFTSSRDTAKNTVDLPMNSLKPEDTAVYYCARYGGYLSLKYDYWGQGTQVTVAS,high polyreactivity
12,QVQLVESGGGLVQAGGSLRLSCAASGYTFYFYAMGWYRQAPGKERELVASITWRGGSTYYADSVKGRFTISRDNAKNTVYLQMNSLKPEDTAVYYCAKQVYYIYDYWGQGTQVTVSS,low polyreactivity
13,QVQLVESGGGLVQAGGSLRLSCAASGLTFPSNAMGWYRQAPGKERELVAAISKRGGRKYYADSVKGRFTISRDNAKNTVYLQMNSLKPEDTAVYYCATPYAYPGTVQYARYNYWGQGTQVTVSS,high polyreactivity
14,QVQLVESGGGLVQAGGSLRLSCAASGSIFWGYAMGWYRQAPGKERELVAAIRVSGGSTYYADSVKGRFTISRDNAKNTVYLQMNSLKPEDTAVYYCARDTWGGFSSADNYWGQGTQVTVSS,high polyreactivity
15,QVQLVESGGGLVQAGGSLRLNCAASGSIFLIYAMGWYRQATGKERELVAGINWSGSRTYNADSVKGRFTISRDNAKNTVYLQMNSLKPEDTAVYYCAARVRRPLYSAYDSWGQGTQVTVSS,low polyreactivity
16,QVQLVESGGGLVQAGGSLRLSCAASGLTFVDNALGWYRQAPGKDRELVAAISYNGGTTYYADSVKGRFTISRDNAKNTVYLQIISLKPEDTAVFYCAADISVGRYGDMDYWGQGTQVTVSS,low polyreactivity
17,QVQLVESGGGLVQAGGSLRLSCAASGFTFARNAMGWYRQAPGKEWELGATISTSGGSTYYADSVKGRFTISRDNAKNTVYLQMNSLKPEDSAVYYFAASYWKGYRRDYWGQGTQVTVSS,low polyreactivity
18,QVQLVDSGGGLVQAGGSLRLSCAASGSIFWDYAMGWYRQAPGIERELVASIPSGGSTYYADSVKGRFTISRDNAKKTVYLQMNRLKPEDTAVYYCAADGHTRHWGQTGRGAMYYWGQGTQVTVSS,low polyreactivity
19,QVQLVESGGGLVQAGGSLRLSCAASGFIFEDYAMGWYRQAPGKERELVAAIRSNDDSTYYADSVKGRFTISRDNAKNTVYLQMNSLKPEDTAVYYCAAVRYVHFGYDYWGQGTQVTVSS,high polyreactivity
20,QVQLVESVGGLDQAGVSLRLSCPASVRTLSKNSMGWYRQAPGKARELVATISSVGRTNYAVSVKGRFTISRDNAKNTVYLQMKSLKREDTAVYYCDARRFRGSYYWGLGTQVTVSS,high polyreactivity

# — the nanobody polyreactivity screen of Harvey et al. (2022)
